This is an account of results in PMC2139831 (The Journal of Cell Biology, 1997).

What all share (assay): two-hybrid
The target in one data set is Chs4p (S. cerevisiae) (UniProt P34226).
Data set [1] addresses Chs4p^C693S (S. cerevisiae) (UniProt P34226).
A further data set addresses Cdc10p (S. cerevisiae) (UniProt P25342).
Another data set concerns the target T1, Chs4p^C693S (S. cerevisiae, UniProt P34226 1-696, C693S).
T1 sequence (looked up): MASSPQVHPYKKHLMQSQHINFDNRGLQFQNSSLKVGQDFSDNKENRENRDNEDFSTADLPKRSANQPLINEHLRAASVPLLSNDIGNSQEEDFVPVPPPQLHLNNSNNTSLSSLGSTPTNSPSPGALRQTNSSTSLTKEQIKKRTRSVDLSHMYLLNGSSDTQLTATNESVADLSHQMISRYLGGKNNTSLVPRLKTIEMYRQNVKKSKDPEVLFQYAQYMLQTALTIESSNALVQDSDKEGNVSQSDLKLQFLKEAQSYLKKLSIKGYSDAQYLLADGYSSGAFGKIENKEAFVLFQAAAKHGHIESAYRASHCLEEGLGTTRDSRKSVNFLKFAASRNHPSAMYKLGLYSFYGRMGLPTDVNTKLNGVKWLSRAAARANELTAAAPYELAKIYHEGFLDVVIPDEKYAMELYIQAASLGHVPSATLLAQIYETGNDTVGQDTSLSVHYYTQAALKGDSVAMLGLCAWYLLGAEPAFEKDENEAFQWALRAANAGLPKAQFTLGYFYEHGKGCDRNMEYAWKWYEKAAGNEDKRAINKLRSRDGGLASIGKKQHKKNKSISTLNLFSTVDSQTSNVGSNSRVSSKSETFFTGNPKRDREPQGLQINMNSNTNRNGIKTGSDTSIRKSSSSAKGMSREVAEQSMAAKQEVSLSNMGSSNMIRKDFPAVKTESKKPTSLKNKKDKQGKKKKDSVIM

The data set “two-hybrid” concerns the molecule itself.
The next data set deals with T2, Chs4p (S. cerevisiae, UniProt P34226 1-696).
T2 sequence (looked up): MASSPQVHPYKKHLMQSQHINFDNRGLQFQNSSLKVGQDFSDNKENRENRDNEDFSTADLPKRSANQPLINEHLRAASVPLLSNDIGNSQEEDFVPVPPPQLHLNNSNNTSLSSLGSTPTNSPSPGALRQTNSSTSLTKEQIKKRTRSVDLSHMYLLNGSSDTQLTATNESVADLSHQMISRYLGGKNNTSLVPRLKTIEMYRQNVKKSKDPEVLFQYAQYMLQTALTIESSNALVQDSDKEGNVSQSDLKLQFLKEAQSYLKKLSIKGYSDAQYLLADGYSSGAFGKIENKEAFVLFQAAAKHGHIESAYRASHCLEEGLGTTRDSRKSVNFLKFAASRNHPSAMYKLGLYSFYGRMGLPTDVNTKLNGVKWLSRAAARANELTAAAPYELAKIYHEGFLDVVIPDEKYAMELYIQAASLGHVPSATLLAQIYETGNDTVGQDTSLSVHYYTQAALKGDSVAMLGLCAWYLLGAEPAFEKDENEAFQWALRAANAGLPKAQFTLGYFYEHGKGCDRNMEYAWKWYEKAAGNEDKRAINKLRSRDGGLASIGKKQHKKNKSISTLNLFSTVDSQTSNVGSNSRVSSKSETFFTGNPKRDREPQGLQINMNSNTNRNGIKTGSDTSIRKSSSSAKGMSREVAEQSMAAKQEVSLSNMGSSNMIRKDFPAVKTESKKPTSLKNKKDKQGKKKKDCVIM

Cdc10p (S. cerevisiae), sequence (P25342 whole entry): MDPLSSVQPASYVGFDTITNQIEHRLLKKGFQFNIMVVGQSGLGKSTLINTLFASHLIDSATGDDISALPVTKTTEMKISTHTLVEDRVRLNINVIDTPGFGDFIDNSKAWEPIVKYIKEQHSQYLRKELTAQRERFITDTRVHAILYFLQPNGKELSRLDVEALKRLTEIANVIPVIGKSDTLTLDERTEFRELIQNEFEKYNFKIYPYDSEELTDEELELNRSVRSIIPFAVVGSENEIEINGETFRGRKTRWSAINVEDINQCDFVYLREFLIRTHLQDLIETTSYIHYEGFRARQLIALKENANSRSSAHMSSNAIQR

On to “Bni4pE (from UniProt P53858 65-730) (domain or fragment)”, for which the units of β-galactosidase activity (units of β-galactosidase activity) with Chs4p (S. cerevisiae) worked out at 238; in data set [1] it was 2220; with Cdc10p (S. cerevisiae), 1010.

B1: Chs3p^Δ700 (domain or fragment, S. cerevisiae, UniProt P29465 1-700, looked up)
chain: MTGLNGDDPDDYYLNLNQDEESLLRSRHSVGSGAPHRQGSLVRPERSRLNNPDNPHFYYAQKTQEQMNHLDVLPSSTGVNPNATRRSGSLRSKGSVRSKFSGRETDSYLLQDMNTTDKKASVKISDEGVAEDEFDKDGDVDNFEESSTQPINKSIKPLRKETNDTLSFWQMYCYFITFWAPAPILAFCGMPKKERQMAWREKVALISVILYIGAIVAFLTFGFTKTVCSSSKLRLKNNEVSTEFVVINGKAYELDTSSRSGIQDVEVDSDTLYGPWSDAGKDASFLFQNVNGNCHNLITPKSNSSIPHDDDNNLAWYFPCKLKNQDGSSKPNFTVENYAGWNCHTSKEDRDAFYGLKSKADVYFTWDGIKNSSRNLIVYNGDVLDLDLLDWLEKDDVDYPVVFDDLKTSNLQGYDLSLVLSNGHERKIARCLSEIIKVGEVDSKTVGCIASDVVLYVSLVFILSVVIIKFIIACYFRWTVARKQGAYIVDNKTMDKHTNDIEDWSNNIQTKAPLKEVDPHLRPKKYSKKSLGHKRASTFDLLKKHSSKMFQFNESVIDLDTSMSSSLQSSGSYRGMTTMTTQNAWKLSNENKAVHSRNPSTLLPTSSMFWNKATSSPVPGSSLIQSLDSTIIHPDIVQQPPLDFMPYGFPLIHTICFVTCYSEDEEGLRTTLDSLSTTDYPNSHKLLMVVCDGLIKGSGN
Turning to B1, the entries for the “units of β-galactosidase activity” value in the data set with Chs4p^C693S, in the data set “two-hybrid” and with Chs4p were 568 units of β-galactosidase activity, 123 units of β-galactosidase activity and 617 units of β-galactosidase activity, respectively.
